{
  "source": "paper PMC10034468",
  "about": "“The Pseudomonas aeruginosa PAO1 metallo flavoprotein D-2-hydroxyglutarate dehydrogenase requires Zn^2+ for substrate orientation and activation” (The Journal of Biological Chemistry, 2023)",
  "proteins": {"B1": {"name": "PaD2HGDH (E-Zn^2+ and E-Co^2+) (Pseudomonas aeruginosa PAO1) (protein)", "chain": "MTREALIESLKPLVEPGKLLDDAASLDAYGKDWTKHFAPAPLAIVFPKSVEQVQAIVRWANQHKVGLVPSGGRTGLSAAAVAANGEVVVAFDYMNRILDFNAFDRTVVCQPGVVTKQLQTFAEENGLYYPVDFASSGSSQIGGNIGTNAGGIKVIRYGMTRNWVAGMKVVTGKGDLLELNKDLIKNATGYDMRQLFIGAEGTLGFVVEATMRLERTPKNLTAMVLGTPDFDSIMPVLHAFQSKLDLTAFEFFSDKALAKVLARGDVPRAFETDCPFYALLEFEATTEEVANEALATFEHCVEQGWVLDGVMSQSEQQLQNLWKLREYISETISHWTPYKNDISVTVSRVPAFLKDIDAIVEANYPDFEVVWFGHIGDGNLHLNILKPENLGKDEFFAKCATVNKWVFETVEKYNGSISAEHGVGMTKRDYLTYTRSETEIAYMKALKAVFDPNGIMNPGKIFAE", "notes": "FAD enzyme"}},
  "key": {"[1]": {"substrate": "O=C(O)CC[C@@H](O)C(=O)O", "assay": "steady-state oxygen consumption, Clark-type electrode", "assay_type": "biochemical, Pseudomonas aeruginosa", "details": "E-Zn2+, PMS as co-substrate, 25 mM NaPO4, pH 7.4, 25 °C", "excerpt": "(§1) steady-state oxygen consumption, Clark-type electrode on PaD2HGDH (E-Zn^2+ and E-Co^2+)"}, "[2]": {"substrate": "O=C(O)C[C@@H](O)C(=O)O", "assay": "steady-state oxygen consumption, Clark-type electrode", "assay_type": "biochemical, Pseudomonas aeruginosa", "details": "E-Zn2+, PMS as co-substrate, 25 mM NaPO4, pH 7.4, 25 °C", "excerpt": "as §1"}},
  "data": [
    {"protein": "B1", "values": [
      {"measurement": "Km", "setting": "[1]", "value": "0.08 ± 0.01", "unit": "mM"},
      {"measurement": "kcat", "setting": "[1]", "value": "26 ± 1", "unit": "s⁻¹"},
      {"measurement": "kcat/Km", "setting": "[1]", "value": "330000 ± 43000", "unit": "M⁻¹ s⁻¹"},
      {"measurement": "Km", "setting": "[2]", "value": "6.0 ± 0.6", "unit": "mM"},
      {"measurement": "kcat", "setting": "[2]", "value": "52 ± 2", "unit": "s⁻¹"},
      {"measurement": "kcat/Km", "setting": "[2]", "value": "9000 ± 900", "unit": "M⁻¹ s⁻¹"}
    ]}
  ]
}
